The text below walks through data of US20220089776A1 (OREGON HEALTH AND SCIENCE UNIVERSITY, published 2022).

Test [1] deals with T1, human blood protein factor XII (FXII) (human, UniProt P00748 20-615).
T1 sequence (looked up): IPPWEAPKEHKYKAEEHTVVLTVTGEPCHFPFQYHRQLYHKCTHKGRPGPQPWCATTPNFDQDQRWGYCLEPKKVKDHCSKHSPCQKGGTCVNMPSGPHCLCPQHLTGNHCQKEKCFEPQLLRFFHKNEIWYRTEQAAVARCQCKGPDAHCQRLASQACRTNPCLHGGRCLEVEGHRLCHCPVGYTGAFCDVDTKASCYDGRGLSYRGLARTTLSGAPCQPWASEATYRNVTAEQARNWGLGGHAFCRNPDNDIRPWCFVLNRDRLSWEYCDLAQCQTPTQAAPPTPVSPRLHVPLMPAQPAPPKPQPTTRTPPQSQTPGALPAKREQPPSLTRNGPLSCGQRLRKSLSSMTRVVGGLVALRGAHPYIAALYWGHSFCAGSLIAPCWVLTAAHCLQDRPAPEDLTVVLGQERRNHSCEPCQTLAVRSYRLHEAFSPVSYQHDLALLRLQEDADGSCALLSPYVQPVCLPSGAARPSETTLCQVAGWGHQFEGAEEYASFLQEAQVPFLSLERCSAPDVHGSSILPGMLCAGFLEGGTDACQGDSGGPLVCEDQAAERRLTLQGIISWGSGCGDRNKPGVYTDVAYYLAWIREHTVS
Description: cell-based or functional assay.

Test [2] has as its target T1, human blood protein factor XII (FXII). Description: cell-based or functional assay. The source holds these as a separate data set.
The target is the same in test [3]. As to the kind of experiment: cell-based or functional assay. The source holds these as a separate data set.
The target in test [4] is T2, human activated FXII (FXIIa) (human, UniProt P00748 20-615, limits assumed).
T2 sequence (looked up): T1 sequence (looked up)
As to the kind of experiment: cell-based or functional assay.

The target in another test is T3, rat FXII (rat, UniProt D3ZTE0 20-595).
T3 construct: mature; Plasma protein
T3 sequence (looked up): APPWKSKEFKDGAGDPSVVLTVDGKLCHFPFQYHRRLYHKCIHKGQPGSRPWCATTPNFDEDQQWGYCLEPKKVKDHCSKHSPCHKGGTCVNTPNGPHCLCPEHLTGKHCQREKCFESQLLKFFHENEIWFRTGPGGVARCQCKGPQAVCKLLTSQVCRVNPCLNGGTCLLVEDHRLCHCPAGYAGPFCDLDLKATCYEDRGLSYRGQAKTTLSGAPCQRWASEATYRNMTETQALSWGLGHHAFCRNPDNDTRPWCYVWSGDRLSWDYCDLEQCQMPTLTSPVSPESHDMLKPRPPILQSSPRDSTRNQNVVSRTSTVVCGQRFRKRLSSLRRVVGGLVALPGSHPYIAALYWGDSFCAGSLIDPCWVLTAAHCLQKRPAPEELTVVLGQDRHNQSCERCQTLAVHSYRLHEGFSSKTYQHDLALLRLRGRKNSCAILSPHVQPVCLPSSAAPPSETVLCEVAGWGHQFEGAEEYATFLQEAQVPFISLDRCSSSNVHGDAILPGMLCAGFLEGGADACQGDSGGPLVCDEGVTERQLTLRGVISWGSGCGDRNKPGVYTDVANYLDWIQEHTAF
As to the kind of experiment: Western blot of platelet-poor plasma, non-reduced SDS-PAGE. A general note: In western blotting, separated proteins are transferred to a membrane and probed.

A further test concerns the target T4, mouse FXII (mouse, UniProt Q80YC5 20-597).
T4 construct: mature; Plasma protein; Tested only in the aPTT assay
T4 sequence (looked up): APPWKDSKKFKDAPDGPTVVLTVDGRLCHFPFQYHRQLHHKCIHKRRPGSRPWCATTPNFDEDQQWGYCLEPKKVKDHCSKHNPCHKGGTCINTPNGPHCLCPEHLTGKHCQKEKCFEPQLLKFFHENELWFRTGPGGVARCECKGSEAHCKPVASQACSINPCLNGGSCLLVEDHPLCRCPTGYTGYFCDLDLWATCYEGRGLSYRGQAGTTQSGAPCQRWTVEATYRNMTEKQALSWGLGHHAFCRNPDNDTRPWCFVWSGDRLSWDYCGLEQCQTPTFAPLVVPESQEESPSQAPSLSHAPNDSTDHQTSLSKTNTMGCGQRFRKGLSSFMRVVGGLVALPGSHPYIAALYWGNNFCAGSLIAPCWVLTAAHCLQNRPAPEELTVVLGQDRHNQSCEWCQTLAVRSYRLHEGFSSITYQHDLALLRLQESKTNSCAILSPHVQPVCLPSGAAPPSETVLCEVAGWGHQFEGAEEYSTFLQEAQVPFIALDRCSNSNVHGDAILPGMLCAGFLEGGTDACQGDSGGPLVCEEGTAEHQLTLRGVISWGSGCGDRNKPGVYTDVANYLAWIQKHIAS
Description: Western blot of recombinant mouse FXII, non-reduced and reduced SDS-PAGE; primary antibody murine 5C12. From the text:
FIG. 3A-3C: Species specificity of 5C12. (FIG. 3A) Western blots of platelet poor plasmas from different species (indicated above each lane) size fractionated by SDS-PAGE […]. Species included in alphabetical order: African green monkey, baboon, beagle, cat, cattle, chicken, cynomolgus monkey, dog, elephant, giant anteater, horse, human, human deficient in FXII, llama, marmoset, pig, rabbit, raccoon, rat, red kangaroo, rhesus macaque and tiger. Human plasma and human deficient in FXII plasma were used in all gels as a positive and negative control, respectively. […] 5C12 also recognizes both the alpha (comprising both the light and heavy chain of FXII) and the beta (comprising only the light chain and a nonapeptide fragment of the heavy chain) form of activated FXII (FXIIa) (FIG. 3C). The primary antibody for all Western blots was murine 5C12, the secondary antibody was goat-anti-mouse polyclonal.

B1: mouse monoclonal antibody 5C12 (antibody, mouse IgG1, kappa, V domains shown)
VH: DVQLQESGPDLVKPSQSLSLTCTVTGYSITSGYSWHWIRQFPGNNLEWMGYIQYSGNTNSNPSLKSRISITRDTSKNQFFLHLNSVTTEDTATYYCARWGSFDYWGQGTTLTVSS
VL: QIVLTQSPAIMSASPGEKVTMTCSASSSVNYMHWYQQKSGTSPKRWIYDTSKLASGVPARFSGSGSGTSYSLTISSMEAGDAATYYCQQWSGNPPTFGGGTILEIKR
notes: Purified from hybridoma; also called AB053; 5C12 MAb
As for B1, the “IC50 (read off the curve): FXIIa amidolytic activity after activation of 50 nM FXII with short polyphosphates, PK and HK” value in test [1] was roughly 10 nM. In addition, the “IC50 (read off the curve): FXIIa amidolytic activity after activation of 50 nM FXII with long polyphosphates, PK and HK” value in test [2] was roughly 10 nM. Besides, the “IC50 (read off the curve): FXIIa amidolytic activity after activation of 40 nM FXII with 1 µg/ml dextran sulfate” value in test [3] is roughly 6 nM. The “IC50 (read off the curve): amidolytic activity of 20 nM FXIIa” value in test [4] was roughly 7 nM. In addition, the binding result with rat FXII and in the test with mouse FXII was “no binding” in each case.
